Measured values taken from paper PMC6679980 (Biochimica et biophysica acta. General subjects, 2019).

Molecular target: GST-FL-UBQLN1 (full-length wild-type human UBQLN1 GST-fusion protein) (human, UniProt Q9UMX0 1-589)
Experiment: pull-down

Chain of GST-FL-UBQLN1 (full-length wild-type human UBQLN1 GST-fusion protein) (Q9UMX0 whole entry, the tested form may be a part): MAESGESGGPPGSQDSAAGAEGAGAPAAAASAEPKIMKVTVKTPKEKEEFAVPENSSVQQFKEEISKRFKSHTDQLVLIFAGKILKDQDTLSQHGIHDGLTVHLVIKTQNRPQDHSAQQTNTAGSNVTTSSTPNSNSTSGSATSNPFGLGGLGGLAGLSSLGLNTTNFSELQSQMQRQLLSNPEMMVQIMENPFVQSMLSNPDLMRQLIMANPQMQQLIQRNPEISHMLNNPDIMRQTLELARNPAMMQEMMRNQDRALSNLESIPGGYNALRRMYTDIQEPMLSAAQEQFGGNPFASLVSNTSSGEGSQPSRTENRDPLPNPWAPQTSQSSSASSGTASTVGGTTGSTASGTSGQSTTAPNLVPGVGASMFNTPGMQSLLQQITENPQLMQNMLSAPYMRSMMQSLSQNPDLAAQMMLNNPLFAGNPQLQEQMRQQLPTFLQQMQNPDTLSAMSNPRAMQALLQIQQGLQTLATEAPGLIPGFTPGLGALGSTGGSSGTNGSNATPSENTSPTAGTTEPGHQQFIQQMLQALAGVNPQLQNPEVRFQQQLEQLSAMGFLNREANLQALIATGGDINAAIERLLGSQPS

- binding result: binds
B1: Full-length human S5a proteasome subunit, His-tagged (natural protein, UniProt P55036 1-377, looked up)
chain: MVLESTMVCVDNSEYMRNGDFLPTRLQAQQDAVNIVCHSKTRSNPENNVGLITLANDCEVLTTLTPDTGRILSKLHTVQPKGKITFCTGIRVAHLALKHRQGKNHKMRIIAFVGSPVEDNEKDLVKLAKRLKKEKVNVDIINFGEEEVNTEKLTAFVNTLNGKDGTGSHLVTVPPGPSLADALISSPILAGEGGAMLGLGASDFEFGVDPSADPELALALRVSMEEQRQRQEEEARRAAAASAAEAGIATTGTEDSDDALLKMTISQQEFGRTGLPDLSSMTEEEQIAYAMQMSLQGAEFGQAESADIDASSAMDTSEPAKEEDDYDVMQDPEFLQSVLENLPGVDPNNEAIRNAMGSLASQATKDGKKDKKEEDKK
